From the Human Domainome abundance scans (Beltran et al. 2025)
± gives the uncertainty stated by the source.

B1: Max-interacting protein 1, residues 70 to 120; numbered along this chain, P50539 (parent)
chain: STHNELEKNRRAHLRLCLERLKVLIPLGPDCTRHTTLGLLNKAKAHIKKLE

Variants of: B1
Assay: abundance fitness (aPCA) (normalised: wild type 0, dead -1); higher = more abundant; growth selection in yeast, the domain comes from the species named
Details: Homo sapiens

Point of comparison: STHNELEKNRRANLRLCLERLKVLIPLGPDCTRHTTLGLLNKAKAHIKKLE [H13N], abundance fitness 0.093 ± 0.18. Against it:
- STHNELEKNRRAHLRLCLERLKVLIPLGPDCTRHTTLGLLNKAKNHIKKLE [A45N] — within error, -0.023 ± 0.16
- STHNELEKNRRAHLRLCLERLKVLIPLGPQCTRHTTLGLLNKAKAHIKKLE [D30Q] — within error, 0.147 ± 0.089
- STHNELEKNRRAHLRLCLERLKVLIPLGPKCTRHTTLGLLNKAKAHIKKLE [D30K] — within error, 0.213 ± 0.11
- STKNELEKNRRAHLRLCLERLKVLIPLGPDCTRHTTLGLLNKAKAHIKKLE [H3K] — within error, 0.178 ± 0.14
- STCNELEKNRRAHLRLCLERLKVLIPLGPDCTRHTTLGLLNKAKAHIKKLE [H3C] — within error, 0.021 ± 0.14
- STHNELEKNRRAHLRLCLERGKVLIPLGPDCTRHTTLGLLNKAKAHIKKLE [L21G] — lower, -0.957 ± 0.1
- STHNELEKNRRAHLRLCLERSKVLIPLGPDCTRHTTLGLLNKAKAHIKKLE [L21S] — lower, -0.915 ± 0.12
- STHNELEKNRRAHLRLCLERVKVLIPLGPDCTRHTTLGLLNKAKAHIKKLE [L21V] — lower, -0.669 ± 0.1
- STHNELEKNRRAHLRLCAERLKVLIPLGPDCTRHTTLGLLNKAKAHIKKLE [L18A] — lower, -0.275 ± 0.089
- STHNELEKNRRAHLRLCEERLKVLIPLGPDCTRHTTLGLLNKAKAHIKKLE [L18E] — lower, -1.07 ± 0.2
- STHNELEKNRWAHLRLCLERLKVLIPLGPDCTRHTTLGLLNKAKAHIKKLE [R11W] — lower, -0.257 ± 0.1
- STHNELEKNRSAHLRLCLERLKVLIPLGPDCTRHTTLGLLNKAKAHIKKLE [R11S] — lower, -0.375 ± 0.12
- STHNELEKNRRAHLRLCLERLKVLIELGPDCTRHTTLGLLNKAKAHIKKLE [P26E] — within error, -0.138 ± 0.11
- STHNELEKNRRAHLRLCLERLKVLIHLGPDCTRHTTLGLLNKAKAHIKKLE [P26H] — within error, 0.017 ± 0.17
- STHNELEKNRRAHLRLCLERLKTLIPLGPDCTRHTTLGLLNKAKAHIKKLE [V23T] — within error, 0.274 ± 0.12
- STHNELEKNRRAHLRLCLERLKVLIPLGPDCTRHTTLGLLNKAKAHIKDLE [K49D] — lower, -1.07 ± 0.25
- STHNELEKNRRAHLRLCLERLKVLIPLGPDCTRHTTLGLLNKAKAHIKWLE [K49W] — within error, -0.041 ± 0.1
- STHNELEKNRRAHLRLCLERLKVLIPLGPDCTRHTTLGLLNKAKAHCKKLE [I47C] — lower, -0.524 ± 0.11
- STHNELEKNRRAHLRLCLERLKVLIPLGPDCTRHTTLGLLNKAKAHNKKLE [I47N] — lower, -0.702 ± 0.18
- STHNELEKNRRAHLRLCLERLKVLIPLGPDCTRHTTLGLLNKAKAHTKKLE [I47T] — lower, -0.61 ± 0.16
- STHNELEKNRRAHLRLCLERLKVLIPLGPDCTRHTTLGLLVKAKAHIKKLE [N41V] — lower, -0.707 ± 0.17
- STHNMLEKNRRAHLRLCLERLKVLIPLGPDCTRHTTLGLLNKAKAHIKKLE [E5M] — within error, 0.119 ± 0.11
- STHNELEKNRRAHLRHCLERLKVLIPLGPDCTRHTTLGLLNKAKAHIKKLE [L16H] — lower, -0.55 ± 0.23
- STHNELEKNRRAHLRLCLERLKVLIPLGPDCTRHTTLGLLNKAKAHISKLE [K48S] — lower, -0.648 ± 0.14
- STHNELEKNRRAHLRLCLERLKVLIPLGPDCTRHTTLGLLNKAKAHICKLE [K48C] — lower, -0.311 ± 0.14
- STHNELEKNRRAHLRLCLERLKVLIPLGPDCTRHTTLGLLNKAKAHIFKLE [K48F] — within error, -0.093 ± 0.16
- STHNELEKNRRAHLRLCLERLKVLIPLGGDCTRHTTLGLLNKAKAHIKKLE [P29G] — within error, -0.119 ± 0.092
- STHNELEKNRRAHLRLCLERLKVLIPLGIDCTRHTTLGLLNKAKAHIKKLE [P29I] — higher, 0.506 ± 0.17
- SIHNELEKNRRAHLRLCLERLKVLIPLGPDCTRHTTLGLLNKAKAHIKKLE [T2I] — lower, -0.24 ± 0.079
- SCHNELEKNRRAHLRLCLERLKVLIPLGPDCTRHTTLGLLNKAKAHIKKLE [T2C] — lower, -0.415 ± 0.12
- STHNELEKNRRAHKRLCLERLKVLIPLGPDCTRHTTLGLLNKAKAHIKKLE [L14K] — lower, -0.625 ± 0.16
- STHNELEKNRRAHDRLCLERLKVLIPLGPDCTRHTTLGLLNKAKAHIKKLE [L14D] — lower, -0.274 ± 0.18
- STHNELEKNRRAHVRLCLERLKVLIPLGPDCTRHTTLGLLNKAKAHIKKLE [L14V] — lower, -0.356 ± 0.092
- STHNELEKNRRAHLRLCLERLKVGIPLGPDCTRHTTLGLLNKAKAHIKKLE [L24G] — lower, -0.461 ± 0.093
- STHNELEKNRRAHLRLCLERLKVWIPLGPDCTRHTTLGLLNKAKAHIKKLE [L24W] — within error, 0.244 ± 0.11
- STHNELEKNRRAHLRLCLERLKVAIPLGPDCTRHTTLGLLNKAKAHIKKLE [L24A] — lower, -0.329 ± 0.099
- STHNEPEKNRRAHLRLCLERLKVLIPLGPDCTRHTTLGLLNKAKAHIKKLE [L6P] — within error, 0.36 ± 0.16
- STHNEVEKNRRAHLRLCLERLKVLIPLGPDCTRHTTLGLLNKAKAHIKKLE [L6V] — within error, -0.005 ± 0.093
- STHNEREKNRRAHLRLCLERLKVLIPLGPDCTRHTTLGLLNKAKAHIKKLE [L6R] — within error, 0.172 ± 0.082
- STHNEIEKNRRAHLRLCLERLKVLIPLGPDCTRHTTLGLLNKAKAHIKKLE [L6I] — within error, -0.189 ± 0.2
- STHNELETNRRAHLRLCLERLKVLIPLGPDCTRHTTLGLLNKAKAHIKKLE [K8T] — lower, -0.377 ± 0.12
- STHNELEINRRAHLRLCLERLKVLIPLGPDCTRHTTLGLLNKAKAHIKKLE [K8I] — lower, -0.536 ± 0.23
- STHNELEGNRRAHLRLCLERLKVLIPLGPDCTRHTTLGLLNKAKAHIKKLE [K8G] — within error, -0.043 ± 0.087
- STHNELEKNRRAHLRLCLERLKVLIPLGPDCTRCTTLGLLNKAKAHIKKLE [H34C] — within error, -0.063 ± 0.099
- STHNELEKNRRAHLRLCLERLKVLIPLGPDATRHTTLGLLNKAKAHIKKLE [C31A] — within error, 0.106 ± 0.081
- STHNELEKNRRAHLRLCLERLKVLIPLGPDDTRHTTLGLLNKAKAHIKKLE [C31D] — within error, -0.136 ± 0.14
- STHNELEKNRRAHLRLCLERLKVLIPLGPDSTRHTTLGLLNKAKAHIKKLE [C31S] — within error, 0.168 ± 0.092
- STHNELEKNRRACLRLCLERLKVLIPLGPDCTRHTTLGLLNKAKAHIKKLE [H13C] — lower, -0.509 ± 0.17
- STHNELEKNRRAFLRLCLERLKVLIPLGPDCTRHTTLGLLNKAKAHIKKLE [H13F] — within error, -0.076 ± 0.13
- STHNELEKNRRAYLRLCLERLKVLIPLGPDCTRHTTLGLLNKAKAHIKKLE [H13Y] — within error, -0.04 ± 0.14
